This assay deals with T1, baculovirus expressed full-length human GR (human, UniProt P04150 1-777).
T1 construct: human glucocorticoid receptor, full length, baculovirus-expressed; source: produced in baculovirus, bought: Invitrogen, partially purified
T1 sequence (looked up): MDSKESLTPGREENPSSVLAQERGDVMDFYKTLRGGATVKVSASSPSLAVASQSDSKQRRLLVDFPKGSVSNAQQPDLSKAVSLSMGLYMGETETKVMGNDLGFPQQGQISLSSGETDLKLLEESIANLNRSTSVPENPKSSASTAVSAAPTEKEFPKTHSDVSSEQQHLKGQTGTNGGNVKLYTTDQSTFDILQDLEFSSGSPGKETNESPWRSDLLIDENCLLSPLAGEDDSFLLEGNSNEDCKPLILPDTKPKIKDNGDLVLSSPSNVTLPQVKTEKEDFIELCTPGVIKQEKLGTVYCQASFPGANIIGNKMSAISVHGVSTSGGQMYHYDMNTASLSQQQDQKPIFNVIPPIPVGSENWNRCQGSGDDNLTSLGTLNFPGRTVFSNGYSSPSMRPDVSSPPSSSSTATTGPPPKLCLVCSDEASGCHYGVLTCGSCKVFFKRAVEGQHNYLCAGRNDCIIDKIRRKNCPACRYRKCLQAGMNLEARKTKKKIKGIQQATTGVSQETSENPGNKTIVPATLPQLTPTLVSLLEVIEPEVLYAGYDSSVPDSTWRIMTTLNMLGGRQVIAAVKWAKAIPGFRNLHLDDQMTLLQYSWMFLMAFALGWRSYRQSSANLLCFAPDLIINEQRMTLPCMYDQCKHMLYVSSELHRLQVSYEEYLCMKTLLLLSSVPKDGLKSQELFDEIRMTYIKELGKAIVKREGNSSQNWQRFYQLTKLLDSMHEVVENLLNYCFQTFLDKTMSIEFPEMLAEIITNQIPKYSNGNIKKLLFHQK
Nature of the assay: pull-down; GST-ERα proteins on glutathione beads incubated with baculovirus-expressed, partially purified human GR; 50 mM Tris pH 8.0, 5 mM EDTA, 150 mM NaCl, 0.5% Nonidet P-40, 1 h at 4 °C; washes with up to 500 mM NaCl; blot for GR. The following applies: both partners purified.

B1: GST-ERα-N (aa 1-250) (domain or fragment, human, UniProt P03372 1-250, looked up)
chain: MTMTLHTKASGMALLHQIQGNELEPLNRPQLKIPLERPLGEVYLDSSKPAVYNYPEGAAYEFNAAAAANAQVYGQTGLPYGPGSEAAAFGSNGLGGFPPLNSVSPSPLMLLHPPPQLSPFLQPHGQQVPYYLENEPSGYTVREAGPPAFYRPNSDNRRQGGRERLASTNDKGSMAMESAKETRYCAVCNDYASGYHYGVWSCEGCKAFFKRSIQGHNDYMCPATNQCTIDKNRRKSCQACRLRKCYEVGM
notes: estrogen receptor alpha, residues 1-250 (N-terminal region: AF1 and DBD); Made in pGEX-6P1; the species of the GST construct itself is not separately stated; also called N-terminal half of ERα
Take B1: the binding result is “binds”.

These data come from PMC3745347, “Interaction of Glucocorticoid Receptor (GR) with Estrogen Receptor (ER) α and Activator Protein 1 (AP1) in Dexamethasone-mediated Interference of ERα Activity*” (The Journal of Biological Chemistry, 2013).
